Measurements: US20250361529

Target: T1, UnCas12f1 (Un1Cas12f1) (UniProt A0A482D308)
T1 sequence: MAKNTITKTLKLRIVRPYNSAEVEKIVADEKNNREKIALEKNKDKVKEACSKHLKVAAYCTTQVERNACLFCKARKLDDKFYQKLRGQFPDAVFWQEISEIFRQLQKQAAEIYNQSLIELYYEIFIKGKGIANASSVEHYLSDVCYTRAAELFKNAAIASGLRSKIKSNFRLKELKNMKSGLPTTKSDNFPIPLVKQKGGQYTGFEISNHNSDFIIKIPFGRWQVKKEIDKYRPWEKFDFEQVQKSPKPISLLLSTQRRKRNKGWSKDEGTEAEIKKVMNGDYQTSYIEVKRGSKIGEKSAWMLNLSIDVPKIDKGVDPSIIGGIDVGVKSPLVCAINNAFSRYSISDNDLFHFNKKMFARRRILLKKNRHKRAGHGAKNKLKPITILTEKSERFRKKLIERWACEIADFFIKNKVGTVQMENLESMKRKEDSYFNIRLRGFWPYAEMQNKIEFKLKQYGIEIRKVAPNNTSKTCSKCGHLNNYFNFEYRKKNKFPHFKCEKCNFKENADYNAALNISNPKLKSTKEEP
Test: cell_activity

“ACCGCUUCACCAAAAGCUGUCCCUUAGGGGAUUAGAACUUGAGUGAAGGUGGGCUGCUUGCAUCAGCCUAAUGUCGAGAAGUGCUUUCUUCGGAAAGUAACCCUCGAAACAAAGAAAGGAAUGCAACNNNNNNNNNNNNNNNNNNNNUUUUAUUUUUUCUCAUUCUCAUGCCUGGACA / TTTGCTCATTCTCATGCCTGGACA / TGTCCAGGCATGAGAATGAGCAAA [ge4.0-F142 sgRNA ; DMD F142 target]” showed an activity (PAM TTTR (TTTG), HEK293, AC16 48.08) of 54 % indel.
Sequence “ACCGCUUCACCAAAAGCUGUCCCUUAGGGGAUUAGAACUUGAGUGAAGGUGGGCUGCUUGCAUCAGCCUAAUGUCGAGAAGUGCUUUCUUCGGAAAGUAACCCUCGAAACAAAGAAAGGAAUGCAACNNNNNNNNNNNNNNNNNNNNUUUUAUUUUUUCUCUCCUAGACCAUUUCCCA / TTTGCTCTCCTAGACCATTTCCCA / TGGGAAATGGTCTAGGAGAGCAAA [ge4.0-R52 sgRNA ; DMD R52 target]” has an activity (PAM TTTR (TTTG), HEK293, AC16 36.47) of 46.1 % indel.
With “ACCGCUUCACUUAGAGUGAAGGUGGGCUGCUUGCAUCAGCCUAAUGUCGAGAAGUGCUUUCUUCGGAAAGUAACCCUCGAAACAAAGAAAGGAAUGCAACNNNNNNNNNNNNNNNNNNNNUUUUAUUUUUUACUGACUACUCCCCAAGUAU / TTTGACTGACTACTCCCCAAGTAT / ATACTTGGGGAGTAGTCAGTCAAA [ge4.1-F110 sgRNA ; DMD F110 target]” the activity (ge4.1, PAM TTTG, HEK293, 5 days, no editing detected) was 0 % indel.
“ACCGCUUCACUUAGAGUGAAGGUGGGCUGCUUGCAUCAGCCUAAUGUCGAGAAGUGCUUUCUUCGGAAAGUAACCCUCGAAACAAAGAAAGGAAUGCAACNNNNNNNNNNNNNNNNNNNNUUUUAUUUUUUCUCAUUCUCAUGCCUGGACA / TTTGCTCATTCTCATGCCTGGACA / TGTCCAGGCATGAGAATGAGCAAA [ge4.1-F142 sgRNA ; DMD F142 target]” gave an activity (PAM TTTR (TTTG), HEK293, AC16 19.18) of 50 % indel.
“ACCGCUUCACUUAGAGUGAAGGUGGGCUGCUUGCAUCAGCCUAAUGUCGAGAAGUGCUUUCUUCGGAAAGUAACCCUCGAAACAAAGAAAGGAAUGCAACNNNNNNNNNNNNNNNNNNNNUUUUAUUUUUUUAGCUAGAUAAACUUGGGCU / TTTATAGCTAGATAAACTTGGGCT / AGCCCAAGTTTATCTAGCTATAAA [ge4.1-R16 sgRNA ; DMD R16 target]” gave an activity (PAM TTTR (TTTA), HEK293, AC16 29.76) of 58.8 % indel.
